For assay [1], the target named is T1, recombinant human C1s CCP1-CCP2-SP-His (human, UniProt P09871 292-688).
T1 construct: Truncated protein lacking the CUB1-EGF-CUB2 domain; also called human C1s CCP1-CCP2-SP M292-D688
T1 sequence: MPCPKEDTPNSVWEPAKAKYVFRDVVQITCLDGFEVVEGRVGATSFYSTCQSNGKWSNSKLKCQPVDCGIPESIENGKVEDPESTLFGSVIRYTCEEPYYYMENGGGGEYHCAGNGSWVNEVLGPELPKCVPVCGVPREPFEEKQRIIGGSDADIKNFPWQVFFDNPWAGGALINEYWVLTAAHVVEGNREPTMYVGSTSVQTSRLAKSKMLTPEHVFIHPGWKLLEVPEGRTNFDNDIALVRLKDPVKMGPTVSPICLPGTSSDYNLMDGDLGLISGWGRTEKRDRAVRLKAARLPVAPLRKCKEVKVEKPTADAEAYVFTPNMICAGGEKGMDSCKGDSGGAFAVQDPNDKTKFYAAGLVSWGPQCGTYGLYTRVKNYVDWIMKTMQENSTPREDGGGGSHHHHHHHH
The assay is described as follows: SPR (BIACORE T200, 37 degrees C, pH 7.4, 1.2 mM CaCl2), antibody captured by protein A/G.

In assay [2] the target is T2, recombinant human C1r2s2 Flag/His tetramer (human, UniProt P09871 16-688; P00736 18-705).
T2 construct: whole entries named; also called hc1r2s2; rC1r2s2
T2 chain 1: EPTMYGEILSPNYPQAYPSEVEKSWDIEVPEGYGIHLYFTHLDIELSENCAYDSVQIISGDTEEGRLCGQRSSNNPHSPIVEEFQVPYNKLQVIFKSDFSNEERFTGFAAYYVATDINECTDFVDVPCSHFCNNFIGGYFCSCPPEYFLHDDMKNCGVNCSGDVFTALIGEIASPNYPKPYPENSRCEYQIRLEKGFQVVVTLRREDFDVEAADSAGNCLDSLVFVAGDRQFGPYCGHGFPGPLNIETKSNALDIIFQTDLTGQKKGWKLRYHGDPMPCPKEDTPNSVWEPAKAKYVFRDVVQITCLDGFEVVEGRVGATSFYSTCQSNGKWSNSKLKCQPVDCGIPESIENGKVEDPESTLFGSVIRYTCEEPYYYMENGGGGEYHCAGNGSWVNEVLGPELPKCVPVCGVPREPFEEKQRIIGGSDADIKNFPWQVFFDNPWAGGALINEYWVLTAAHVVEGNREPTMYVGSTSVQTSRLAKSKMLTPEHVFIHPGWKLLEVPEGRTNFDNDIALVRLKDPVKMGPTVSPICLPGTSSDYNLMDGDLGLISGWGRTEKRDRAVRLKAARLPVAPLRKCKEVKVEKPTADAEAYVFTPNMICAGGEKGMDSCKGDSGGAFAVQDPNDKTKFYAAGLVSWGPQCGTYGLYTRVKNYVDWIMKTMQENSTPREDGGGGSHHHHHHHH
T2 chain 2: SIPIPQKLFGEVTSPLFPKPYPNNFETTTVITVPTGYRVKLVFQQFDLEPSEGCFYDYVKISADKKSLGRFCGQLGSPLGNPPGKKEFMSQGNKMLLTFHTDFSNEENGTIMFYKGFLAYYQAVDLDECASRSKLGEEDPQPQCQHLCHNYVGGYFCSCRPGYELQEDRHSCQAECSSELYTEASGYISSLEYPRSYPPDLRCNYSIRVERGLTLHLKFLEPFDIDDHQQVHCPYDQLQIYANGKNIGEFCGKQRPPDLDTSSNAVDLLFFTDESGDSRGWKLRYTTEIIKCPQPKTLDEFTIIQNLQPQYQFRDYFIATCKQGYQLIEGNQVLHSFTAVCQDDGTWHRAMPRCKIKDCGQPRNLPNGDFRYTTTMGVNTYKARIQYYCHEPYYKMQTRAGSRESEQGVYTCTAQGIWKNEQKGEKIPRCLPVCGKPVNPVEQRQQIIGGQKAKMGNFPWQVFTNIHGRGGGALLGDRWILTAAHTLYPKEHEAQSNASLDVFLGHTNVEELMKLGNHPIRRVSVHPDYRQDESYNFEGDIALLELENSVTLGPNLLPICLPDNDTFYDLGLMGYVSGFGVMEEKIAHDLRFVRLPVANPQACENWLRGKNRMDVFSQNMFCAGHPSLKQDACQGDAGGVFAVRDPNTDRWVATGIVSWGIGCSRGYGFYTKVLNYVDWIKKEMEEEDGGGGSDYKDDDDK
Nature of the assay: SPR displacement (37 degrees C, pH 7.4): C1r2s2 captured by anti-His, C1q 100 nM pre-bound, antibody 500 nM at 10 micro L/min; time from antibody injection until the antibody sensorgram falls below the buffer sensorgram; competitor native human C1q. As for the experimental part: An anti-His antibody (GE-Healthcare) was immobilized onto all flow cells of a CM4 sensor chip using an amine coupling kit (GE Healthcare). The antibodies, recombinant human C1r2s2 Flag/His tetramer and native human C1q (Comptech A099) were prepared in pH 7.4 buffer (20 mM ACES, 150 mM NaCl, 1.2 mM CaCl₂, 1 mg/mL BSA (IgG-free), 1 mg/mL CMD, 0.05% Tween 20, 0.005% NaN₃, pH 7.4). Recombinant human C1r2s2 Flag/His tetramer was first captured onto the sensor surface by the anti-His antibody (“hc1r2s2” in FIG. 2A). The capture levels were aimed at 200 resonance unit (RU). Native human C1q was injected at 100 nM to have a capture of 200 RU (“hc1q” in FIG. 2A), followed by antibody injection at 500 nM at 10 micro L/min for 1200 sec immediately. The sensor surface was regenerated each cycle with 10 mM Glycine-HCl (pH 1.5). For the antibodies with the C1q displacement function, the response unit of Sensorgram 2 (large dotted line; “C1r2s2+C1q+Ab” in FIGS. 2A and 2C) is lower than the response unit in Sensorgram 1 (small dotted line; “C1r2s2+C1q+buffer” in FIGS. 2A and 2C) after the time point where Sensorgrams 1 and 2 cross (“time point of crossover”). Depending on the time when Sensorgram 2 crosses over Sensorgram 1, COS0499 was categorized as a fast displacement variant. […] COS0448 was in the middle of fast displacement and slow displacement.
The time point of crossover is identified by subtraction of the buffer response (Sensorgram 1) from the antibody (Ab) response (Sensorgram 2), and referring to the time point when the differential value changes from positive to negative (Table 4). The time from the start of Ab injection is indicated in Table 4 as “time point of crossover”.

Five molecules from patent US20210198347A1 (Chugai, published 2021) can be followed below.

B1: COS0499ee-SG1148 (antibody, human IgG1, kappa, V domains shown)
VH: QSLEESGGRLVTPGTPLTLTCTASGFSLSNYNMAWVRQAPGKGLEWIGIIETTTNTYYARWARGRFTISKTSSTTVDLQIASPTTEDTATYFCGRRVSNSHDLWGPGTLVTVSS
VL: AYDMTQTPASVSAAVGGTVTINCQASQTIGGWCAWYQQKPGQPPKLLIYKASTLASGVSSRFKGSGSGTEFALTISDLECDDAATYYCQHGYYTSSTIENTFGGGTKVEIKR
notes: also called COS499; COS499ee(-SG1148)
Regarding B1, the binding result in assay [1] is “no binding (tested: 100 nM)”. Also, the “Time point of crossover (post-injection)” value in assay [2] is 61.9 s.

B2: COS0448oo-SG1148 (antibody, human IgG1, kappa, V domains shown)
VH: QSVEESGGRLVTPGTPLTLTCTVSGFSLSNYGMIWVRQAPGEGLEYIGFVSGSGSAYYANWVKGRFTISKTSTTVDLKMTSLTTEDTATYFCARGAYNTDSYSYSLYYGMDLWGPGTLVTVSS
VL: QIVMTQTPASVEVAVGGTVTIKCQASQSIYSYLSWYQQKPGQPPKLLIYGASTLASGVPSRFKGSRSGTEFTLTISDLECADAATYYCQSNYATTTTYGTFGGGTKVEIKR
notes: Rabbit B-cell derived variable regions; also called COS448; COS44800(-SG1148)
For the molecule B2, in assay [1], the binding result is listed as “no binding (tested: 100 nM)”. The “Time point of crossover (post-injection)” value in assay [2] worked out at 169 s.

B3: COS0547gg-SG1148 (antibody, human IgG1, kappa, V domains shown)
VH: QSLEESGGRLVTPGTPLTLTCTASGFSLSSYHMDWVRQAPGKGLEWIGIITYTGDTYYATWAKGRFTISKTSSTTVDLKMASLTTEDTATYFCARRQYDAYNVWGPGTLVTVSS
VL: AYDMTQTPASVEVAVGGTVTIKCQASQSINNYLAWYQQKPGQPPKLLIYYASTLASGVPSRFKGSRSGTEFTLTISGVECADAATYYCQHGYYTSSNIDSVFGGGTKVEIKR
Take B3: the binding result in assay [1] is recorded as “no binding (tested: 100 nM)”. For the same molecule, in assay [2], the “Time point of crossover (post-injection)” value stood at 542 s.

B4: COS0637cc-SG1148 (antibody, human IgG1, kappa, V domains shown)
VH: QSLEESGGRLVTPGTPLTLTCTASGFSLSAYAMNWVRQAPGKGLEWIGLIYGSGSTFYASWAKGRFTISKTSTTVDLKMTSLTTEDTATYFCARGRSVNYNSDFKLWGPGTLVTVSS
VL: QVLTQTPSSVSAAVGGTVTINCQASQSLHDKKNLAWYQHKPGQRPNLLIYGASTLESGVPSRFKGSGSGTEYTLTISDLECDDAAAYYCQGEFSCSSADCNTFGGGTKVEIKR
Take B4: the binding result in assay [1] was “no binding (tested: 100 nM)”. The “Time point of crossover (post-injection)” value in assay [2] amounted to 764 s.

B5: COS0631gg-SG1148 (antibody, human IgG1, kappa, V domains shown)
VH: QSVEESGGRLVTPGTPLTLTCTVSGFSLSRYSMGWVRQAPGKGLEWIGIIYADGGAYYASWAKGRFTISKTSTTMDLKVTSPTTEDTATYFCARGQFINSNEFFNPWGPGTLVTVSS
VL: QVLTQTASSVSAVVGGTVTINCQASQSLHNNKNLAWYQQKPGQPPRLLIYYASTLASGVSSRFKGSGSGTQFTLTISDLECDDAATYYCAGEFSCSNGDCNAFGGGTKVEIKR
As for B5, the binding result in assay [1] is “no binding (tested: 100 nM)”. In assay [2], the “Time point of crossover (post-injection)” value is 736 s.
